Measured values published in patent US20140162945A1 (BEIJING HANMI PHARMACEUTICAL, published 2014).
Each block holds one binder with its values, some of them ahead of it. Where no end group is shown, it is not given here. [ ]: non-standard residue; d: D form. Aib = CC(C)(N)C(=O)O

How the values were obtained:
Experiment in all cases: cell-based or functional assay
human GIP receptor [1] = biological target: T1, human GIP receptor (human, UniProt P48546 22-466)
T1 sequence (looked up): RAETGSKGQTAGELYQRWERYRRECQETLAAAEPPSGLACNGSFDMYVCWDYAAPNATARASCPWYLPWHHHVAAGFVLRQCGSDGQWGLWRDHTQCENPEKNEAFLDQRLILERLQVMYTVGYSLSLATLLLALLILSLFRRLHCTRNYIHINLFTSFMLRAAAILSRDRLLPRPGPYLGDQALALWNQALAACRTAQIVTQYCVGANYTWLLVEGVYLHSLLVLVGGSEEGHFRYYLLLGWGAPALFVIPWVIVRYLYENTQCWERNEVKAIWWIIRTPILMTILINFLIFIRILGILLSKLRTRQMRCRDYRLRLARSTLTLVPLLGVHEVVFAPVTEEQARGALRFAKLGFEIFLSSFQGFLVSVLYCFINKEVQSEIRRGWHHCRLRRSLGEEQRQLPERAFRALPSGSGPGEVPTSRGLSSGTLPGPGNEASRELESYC

human GLP-1 receptor [2] = biological target: T2, human GLP-1 receptor (human, UniProt P43220 24-463)
human GIP receptor [3] = biological target: T1, human GIP receptor; remark: listed apart in the source
human GLP-1 receptor [4] = biological target: T2, human GLP-1 receptor; remark: listed apart in the source

T2 sequence (P43220 24-463): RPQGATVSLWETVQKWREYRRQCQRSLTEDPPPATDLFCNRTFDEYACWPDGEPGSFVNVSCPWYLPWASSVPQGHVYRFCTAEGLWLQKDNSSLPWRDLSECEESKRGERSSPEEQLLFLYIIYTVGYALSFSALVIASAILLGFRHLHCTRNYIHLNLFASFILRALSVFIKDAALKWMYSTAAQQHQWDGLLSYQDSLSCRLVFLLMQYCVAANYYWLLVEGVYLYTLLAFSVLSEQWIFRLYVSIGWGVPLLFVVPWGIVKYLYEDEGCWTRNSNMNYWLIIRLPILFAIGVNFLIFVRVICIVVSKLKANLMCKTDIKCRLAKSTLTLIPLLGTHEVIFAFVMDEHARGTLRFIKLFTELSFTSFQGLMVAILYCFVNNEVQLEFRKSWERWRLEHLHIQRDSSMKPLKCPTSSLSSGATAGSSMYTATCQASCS

EC50, GIPR cAMP induction (human GIP receptor [1]): 1.5 nM | EC50, GLP-1R cAMP induction (human GLP-1 receptor [2]): 0.837 nM | EC50, GIP Receptor cAMP induction (human GIP receptor [3]): 1.5 nM | Relative Potency, GIP Receptor (human GIP receptor [3]): 33.3% | EC50, GLP-1 Receptor cAMP induction (human GLP-1 receptor [4]): 0.837 nM | Relative Potency, GLP-1 Receptor (human GLP-1 receptor [4]): 131%
B1: Analog 025 (peptide)
peptide: Y[Aib]EGTFTSDYSIYMEKQAAKEFIAWLVKG-NH2
modifications: N-terminus assumed
SMILES: CC[C@H](C)[C@H](NC(=O)[C@H](Cc1ccccc1)NC(=O)[C@H](CCC(=O)O)NC(=O)[C@H](CCCCN)NC(=O)[C@H](C)NC(=O)[C@H](C)NC(=O)[C@H](CCC(N)=O)NC(=O)[C@H](CCCCN)NC(=O)[C@H](CCC(=O)O)NC(=O)[C@H](CCSC)NC(=O)[C@H](Cc1ccc(O)cc1)NC(=O)[C@@H](NC(=O)[C@H](CO)NC(=O)[C@H](Cc1ccc(O)cc1)NC(=O)[C@H](CC(=O)O)NC(=O)[C@H](CO)NC(=O)[C@@H](NC(=O)[C@H](Cc1ccccc1)NC(=O)[C@@H](NC(=O)CNC(=O)[C@H](CCC(=O)O)NC(=O)C(C)(C)NC(=O)[C@@H](N)Cc1ccc(O)cc1)[C@@H](C)O)[C@@H](C)O)[C@@H](C)CC)C(=O)N[C@@H](C)C(=O)N[C@@H](Cc1c[nH]c2ccccc12)C(=O)N[C@@H](CC(C)C)C(=O)N[C@H](C(=O)N[C@@H](CCCCN)C(=O)NCC(N)=O)C(C)C

EC50, GIPR cAMP induction (human GIP receptor [1]): 0.088 nM | EC50, GLP-1R cAMP induction (human GLP-1 receptor [2]): 1.28 nM | EC50, GIP Receptor cAMP induction (human GIP receptor [3]): 0.088 nM | Relative Potency, GIP Receptor (human GIP receptor [3]): 107% | EC50, GLP-1 Receptor cAMP induction (human GLP-1 receptor [4]): 1.28 nM | Relative Potency, GLP-1 Receptor (human GLP-1 receptor [4]): 75%
B2: Analog 023 (peptide)
peptide: Y[Aib]EGTFTSDYSIYMEKEAVREFIAWLVKG-NH2
modifications: N-terminus assumed
SMILES: CC[C@H](C)[C@H](NC(=O)[C@H](Cc1ccccc1)NC(=O)[C@H](CCC(=O)O)NC(=O)[C@H](CCCNC(=N)N)NC(=O)[C@@H](NC(=O)[C@H](C)NC(=O)[C@H](CCC(=O)O)NC(=O)[C@H](CCCCN)NC(=O)[C@H](CCC(=O)O)NC(=O)[C@H](CCSC)NC(=O)[C@H](Cc1ccc(O)cc1)NC(=O)[C@@H](NC(=O)[C@H](CO)NC(=O)[C@H](Cc1ccc(O)cc1)NC(=O)[C@H](CC(=O)O)NC(=O)[C@H](CO)NC(=O)[C@@H](NC(=O)[C@H](Cc1ccccc1)NC(=O)[C@@H](NC(=O)CNC(=O)[C@H](CCC(=O)O)NC(=O)C(C)(C)NC(=O)[C@@H](N)Cc1ccc(O)cc1)[C@@H](C)O)[C@@H](C)O)[C@@H](C)CC)C(C)C)C(=O)N[C@@H](C)C(=O)N[C@@H](Cc1c[nH]c2ccccc12)C(=O)N[C@@H](CC(C)C)C(=O)N[C@H](C(=O)N[C@@H](CCCCN)C(=O)NCC(N)=O)C(C)C
